The values below come from patent publication EP0561496A2 (NEW ENGLAND MEDICAL CENTER HOSPITALS, INC., priority 1992, dated 1993).

By Kd is commonly meant the concentration at which binding is half-saturated.

Assay [1] has as its target T1, recombinant GR-1 receptor (canine parietal cell gastrin receptor) (Canis lupus familiaris, UniProt P30552).
T1 construct: expressed in transfected cells; host or cells: COS-7 cells transiently transfected with GR-1 in pCDNA-1
T1 sequence (P30552 1-453): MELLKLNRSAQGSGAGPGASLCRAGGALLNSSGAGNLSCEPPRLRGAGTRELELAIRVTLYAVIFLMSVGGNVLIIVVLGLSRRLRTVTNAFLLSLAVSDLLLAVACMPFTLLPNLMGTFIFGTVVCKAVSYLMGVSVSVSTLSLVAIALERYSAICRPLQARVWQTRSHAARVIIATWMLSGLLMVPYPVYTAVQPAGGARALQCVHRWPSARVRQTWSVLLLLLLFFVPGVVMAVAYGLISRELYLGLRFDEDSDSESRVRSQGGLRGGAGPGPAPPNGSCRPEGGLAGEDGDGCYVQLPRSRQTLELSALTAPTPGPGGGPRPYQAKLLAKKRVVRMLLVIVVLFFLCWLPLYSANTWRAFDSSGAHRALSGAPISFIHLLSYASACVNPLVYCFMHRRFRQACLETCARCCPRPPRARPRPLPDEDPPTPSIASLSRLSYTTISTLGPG
Put plainly: Competition binding in isolated plasma membranes from GR-1 transfected COS-7 cells. The conditions noted are these: isolated membranes from transiently transfected COS-7 cells, 60 min at 22°C; read-out: IC₅₀.
Protocol: Binding parameters were also measured in isolated plasma membranes from COS-7 cells transfected with GR-1. Binding was performed for 60 min at 22°C.

Assay [2] deals with T1, recombinant GR-1 receptor (canine parietal cell gastrin receptor). Put plainly: Competition binding of 125I-CCK-8 to intact GR-1 transfected COS-7 cells.
Protocol: COS-7 cells (1.5x 10⁶) were plated in 10 cm culture dishes (Nunc) and grown in DMEM/ 10% fetal calf serum, 5% CO₂ at 37°C. […] Twenty-four hours following transfection, cells were split into 24-well dishes (Nunc), 5000 cells/well. […] Equilibrium binding occurred after incubation for 80 min at 37°C. Cell monolayers were subsequently washed three times and bound radioactivity was quantified after cell hydrolysis in 1 N NaOH.
Assay [3] addresses T2, human brain CCK-B receptor (Homo sapiens, UniProt P32239).
T2 construct: isolate the corresponding full length human CCK-B receptor cDNA from a fetal (week 23) human brain library; expressed in transfected cells; host or cells: COS-7 cells transiently transfected with hCCKB-pcDNA I
T2 sequence (P32239 1-447): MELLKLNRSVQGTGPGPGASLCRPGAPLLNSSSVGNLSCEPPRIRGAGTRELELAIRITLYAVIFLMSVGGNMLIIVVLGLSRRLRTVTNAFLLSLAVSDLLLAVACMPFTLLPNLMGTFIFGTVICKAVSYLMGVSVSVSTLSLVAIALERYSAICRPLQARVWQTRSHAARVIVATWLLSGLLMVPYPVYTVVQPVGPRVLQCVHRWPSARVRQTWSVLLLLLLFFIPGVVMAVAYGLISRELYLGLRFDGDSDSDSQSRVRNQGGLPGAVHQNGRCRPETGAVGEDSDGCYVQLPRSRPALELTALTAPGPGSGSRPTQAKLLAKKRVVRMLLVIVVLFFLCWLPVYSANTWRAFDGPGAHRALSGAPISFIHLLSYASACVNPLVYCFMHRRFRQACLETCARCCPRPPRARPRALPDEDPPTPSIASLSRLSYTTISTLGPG
Put plainly: Competition binding of 125I CCK-8 to COS-7 cells transfected with hCCKB-pcDNA I. The following applies: recombinant human CCK-B receptor.

In assay [4] the target is canine parietal cell gastrin receptor (recombinant, clone GR-1, expressed in transfected COS-7 cells) (canine). The assay can be described thus: competition against 125I-CCK-8, isolated membranes of GR-1 transfected COS-7 cells.
Assay [5] shares this target. The assay can be described thus: competition against 125I-CCK-8, intact GR-1 transfected COS-7 cells.
The target is the same in assay [6]. The assay can be described thus: cell-based or functional assay.
Assay [7] has as its target gastrin receptor on native canine parietal cells (canine). The assay can be described thus: radioligand saturation binding, native parietal cells.
The target in assay [8] is canine parietal cell gastrin receptor (recombinant, clone GR-1, expressed in transfected COS-7 cells) (canine). The assay can be described thus: radioligand saturation binding, GR-1 transfected COS-7 cells.
For assay [9] the target is unchanged. The assay can be described thus: 125I-CCK-8 binding to GR-1 transfected COS-7 cells, no competitor (FIG. 3).

Take `CSCC[C@H](NC(=O)[C@H](Cc1ccc(O)cc1)NC(=O)[C@@H](N)CC(=O)O)C(=O)NCC(=O)N[C@@H](Cc1c[nH]c2ccccc12)C(=O)N[C@@H](CCSC)C(=O)N[C@@H](CC(=O)O)C(=O)N[C@@H](Cc1ccccc1)C(N)=O` [CCK-8-desulfate]: the IC50 amounted to 1.5 nM in assay [1] and 1.4 nM in assay [2] (intact GR-1 transfected COS-7 cells, 40 pM 125I-CCK-8 radioligand, 80 min at 37°C, read-out: IC₅₀).
On to `CN1C(=O)[C@@H](NC(=O)c2cc3ccccc3[nH]2)N=C(c2ccccc2)c2ccccc21` [L364,718], for which, in [2] (read-out: IC₅₀), the IC50 was found to be 19 nM.
Turning to `Cc1cccc(NC(=O)N[C@@H]2N=C(c3ccccc3)c3ccccc3N(C)C2=O)c1` [L365,260], the “higher affinity than L364,718” value in assay [3] is on record as “approximately 40 fold”. Also, the IC50 in assay [2] came to 130 nM.
Turning to “CCK-8 (from UniProt P06307 96-103) (peptide)”, the IC50 in assay [4] was 0.08 nM; in assay [5], 0.09 nM.
Consider “CCK-8-desulfate (from UniProt P06307 96-103) (peptide)”, for which the IC50 in assay [4] amounted to 1.5 nM.
On to “gastrin I (from UniProt P01350 76-92) (peptide)”, for which the IC50 in assay [4] was 0.4 nM. For the same compound, the IC50 in [5] is 0.26 nM. In addition, in [6], the free cytosolic calcium, [Ca²⁺] is 142 nM; the free cytosolic calcium, [Ca²⁺], after chelation of extracellular calcium by EGTA (2.5 mM) amounted to 88.5 nM; the level of Ins-1,3,4,5-P₄, increase came out at 272%; the level of Ins-1,4,5-P₃, increase over control amounted to 741%.
“¹²⁵I-CCK-8 (from UniProt P06307 96-103) (peptide)”: the Kd in assay [7] came to 0.27 nM; in assay [8] it was 0.08 nM. Besides, in [9], the Maximum binding in the absence of competitor (100%) stood at 5.2 pM.
